Results reported in patent US20220184177A1 (SAINT JOSEPH S UNIVERSITY, published 2022).
Where no end group is shown, it is not given here. The star is where a group is joined. Biotin = O=C1N[C@H]2[C@H](CS[C@H]2CCCCC(=O)*)N1

T1: Estrogen Receptor α (UniProt P03372 1-595, limits assumed)
T1 construct: also called ERα; ERa
T1 sequence (looked up): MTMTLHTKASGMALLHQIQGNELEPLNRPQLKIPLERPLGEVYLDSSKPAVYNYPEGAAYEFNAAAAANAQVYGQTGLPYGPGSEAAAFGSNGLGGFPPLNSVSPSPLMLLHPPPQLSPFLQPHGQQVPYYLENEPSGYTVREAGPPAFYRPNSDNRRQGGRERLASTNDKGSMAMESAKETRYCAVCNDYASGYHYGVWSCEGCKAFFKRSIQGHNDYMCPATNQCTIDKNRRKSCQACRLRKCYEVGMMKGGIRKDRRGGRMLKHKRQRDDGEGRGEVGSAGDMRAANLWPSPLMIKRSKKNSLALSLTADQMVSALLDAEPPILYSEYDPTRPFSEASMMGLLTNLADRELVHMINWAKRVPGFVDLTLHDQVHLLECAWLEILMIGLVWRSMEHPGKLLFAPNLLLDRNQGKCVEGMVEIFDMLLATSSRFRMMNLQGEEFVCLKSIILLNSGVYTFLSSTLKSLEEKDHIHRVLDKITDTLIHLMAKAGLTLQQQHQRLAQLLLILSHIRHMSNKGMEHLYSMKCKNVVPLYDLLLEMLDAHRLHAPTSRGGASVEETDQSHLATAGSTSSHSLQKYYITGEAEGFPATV

B1: CAPER peptide HCC1.3 (amino acid residues 356-400) (peptide)
peptide: Biotin-RLQLMARLAEGTGLQIPPAAQQALQMSGSLAFGAVADLQTRLSQQ
notes: Custom synthesized (LifeTein), crude purity, N-terminal biotin; A TAT control peptide was run alongside, so the TAT form is possible
B2: His-tagged recombinant c-Jun (other, UniProt P05412 1-331, looked up)
chain: MTAKMETTFYDDALNASFLPSESGPYGYSNPKILKQSMTLNLADPVGSLKPHLRAKNSDLLTSPDVGLLKLASPELERLIIQSSNGHITTTPTPTQFLCPKNVTDEQEGFAEGFVRALAELHSQNTLPSVTSAAQPVNGAGMVAPAVASVAGGSGSGGFSASLHSEPPVYANLSNFNPGALSSGGGAPSYGAAGLAFPAQPQQQQQPPHHLPQQMPVQHPRLQALKEEPQTVPEMPGETPPLSPIDMESQERIKAERKRMRNRIAASKCRKRKLERIARLEEKVKTLKAQNSELASTANMLREQVAQLKQKVMNHVNSGCQLMLTQQLQTF
notes: Captured on BLI tips by an anti-his tag antibody; also called c-Jun receptor; c-Jun component of AP-1; not shown: his tag
B3: CAPER peptide HCC1.4 (amino acid residues 356-400) (peptide)
peptide: Biotin-RLQLMARLAEGTGLQIPPAAQQALQMSGSLAFGAVAEFSFVIDLQ
notes: Custom synthesized (LifeTein), crude purity, N-terminal biotin
B4: TAT Control Peptide (peptide)
peptide: Biotin-YGRKKRRQRRR
notes: Control peptide; also called TAT only control
B5: CAPER peptide Scrambled (peptide)
peptide: Biotin-VGDALQGLRLFSTQASIGAQMEQLAAQPLRAGQMLQLAQASPLRT
notes: Control peptide; also called CAPER Scrambled Peptide; CAPER scrambled peptide
B6: Recombinant Full-Length CAPER HCC1.3 (other)
chain: ADDIDIEAMLEAPYKKDENKLSSANGHEERSKKRKKSKSRSRSHERKRSKSKERKRSRDRERKKSKSRERKRSRSKERRRSRSRSRDRRFRGRYRSPYSGPKFNSAIRGKIGLPHSIKLSRRRSRSKSPFRKDKSPVREPIDNLTPEERDARTVFCMQLAARIRPRDLEEFFSTVGKVRDVRMISDRNSRRSKGIAYVEFVDVSSVPLAIGLTGQRVLGVPIIVQASQAEKNRAAAMANNLQKGSAGPMRLYVGSLHFNITEDMLRGIFEPFGRIESIQLMMDSETGRSKGYGFITFSDSECAKKALEQLNGFELAGRPMKVGHVTERTDASSASSFLDSDELERTGIDLGTTGRLQLMARLAEGTGLQIPPAAQQALQMSGSLAFGAVADLQTRLSQQTEASALAAAASVQPLATQCFQLSNMFNPQTEEEVGWDTEIKDDVIEECNKHGGVIHIYVDKNSAQGNVYVKCPSIAAAIAAVNALHGRWFAGKMITAAYVPLPTYHNLFPDSMTATQLLVPSRR
notes: Bought from R&D Systems; also called full-length recombinant CAPER; CAPER isoform HCC1.3

What was measured:
[1] = target: B2; assay: BLI (Octet), his-tagged c-Jun captured by anti-his antibody, 1:1 model
[2] = target: T1, Estrogen Receptor α; assay: binding kinetics on ERα (method not described, presumably BLI)
[3] = target: B6; assay: BLI (Octet), his-tagged c-Jun captured by anti-his antibody, 1:1 model
[4] = target: B2; assay: BLI, his-tagged c-Jun captured by anti-his antibody
[5] = target: B2; assay: BLI (Octet), His-tagged c-Jun captured on anti-His tips, peptide in solution

Row | Binder | Kd [1] [nM] | koff [1] [s⁻¹] | kon [1] [M⁻¹ s⁻¹] | Kd [2] [nM] | koff [2] [s⁻¹] | kon [2] [M⁻¹ s⁻¹] | further results
1 | B1 | 8.89 | 0.000337 | 37900 | 4.5 | 0.000115 | 25400 | 
2 | B2 |  |  |  |  |  |  | Kd [3]: 0.18 nM; koff [3]: 5.66e-05 s⁻¹; kon [3]: 312000 M⁻¹ s⁻¹
3 | B3 | 25.6 | 0.00098 | 38300 | 30.2 | 0.00172 | 57100 | 
4 | B4 |  |  |  |  |  |  | binding result [4]: no binding
5 | B5 |  |  |  |  |  |  | binding result [5]: no binding (tested: 1000 (no unit printed on the sheet))
6 | B6 |  |  |  | 0.02 | 2.34e-05 | 937000 | 
